± gives the half width of the 95% confidence interval.
Tests used:
[1] = folding stability dG unfold (combined trypsin and chymotrypsin); higher = more stable
How it was run: (§1)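 Unfolding free energy was derived, per protease or combined, against a sequence-predicted unfolded-state K50 and a shared folded-state K50, starting from K50 inferred by Bayesian fitting of sequencing counts. Digestion with trypsin and chymotrypsin was carried out on designed mini-proteins under 80 residues without cysteine in a PA-tagged cDNA display construct. Only designs with AlphaFold2 dimer inter-PAE above 15 were kept.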

[2] = folding stability dG unfold from chymotrypsin proteolysis; higher = more stable
How it was run: as §1

[3] = folding stability dG unfold from trypsin proteolysis; higher = more stable
How it was run: as §1

| Sequence | folding stability dG unfold [1] | folding stability dG unfold [2] | folding stability dG unfold [3] |
| --- | --- | --- | --- |
| SAGGSAGGSRKIPIWIPPGMPPEQLEHFVRFIAGENGWKIKSVEIKDVDPANNWVKIDIEVKWSAGGSAGGS [r12_168_TrROS] | 2.67 ± 0.11 kcal/mol | 2.9 ± 0.093 kcal/mol | 2.16 ± 0.094 kcal/mol |
| SAGGSAGGSAGMINPKDVVEVSSSTDPNSSSGTLTVTLKDGKEITISYSSSSEAEAALLGSAGGSAGGSAGG [r11_339_JUSTAS] | 1.44 ± 0.2 kcal/mol | 1.52 ± 0.12 kcal/mol | 1.1 ± 0.061 kcal/mol |
| SAGDPDRPLGPVEITVDPEENTLTITFGDLTLTLPLPEGVEATAEVFPDHVVLTVRYPDGTIRTFVFPLSAG [r5_21_TrMRF] | 5.06 ± 0.16 kcal/mol | 5.09 ± 0.15 kcal/mol | 4.14 ± 0.13 kcal/mol |
| SAKMTAEELAKKLAEELAKKLGVKVKVEVEVKVEEKDGKLVIEVKIKVYNENGELIEEIKIEIVLPKEESAG [r14_708_TrROS_Hall] | 3.51 ± 0.28 kcal/mol | 3.84 ± 0.26 kcal/mol | 2.92 ± 0.35 kcal/mol |
| SIFRIRMPGNREFRIFIPPDGMVNVSMPNGKKHTHPFKDKEDAKEIADVLSKHFPNMPVEIEPIPPDDIKSA [r9_1206_TrROS] | 0.793 ± 0.37 kcal/mol | 0.166 ± 0.91 kcal/mol | 1.26 ± 0.11 kcal/mol |
| SAGGSAGGSATIYIIMPPDDPIPPNMPIRLPDGKPVRIDVEPVPLEEDGGPIFRIEVEPGATSAGGSAGGSA [r18_476_TrROS] | -0.03 ± 0.16 kcal/mol | 0.0617 ± 0.21 kcal/mol | -0.181 ± 0.12 kcal/mol |
| SAGGSIRELAKELAREFAEEHGIKEVEVKVEPYPNGWIKIEVSVEGPNGEPIGEWPIQIPIPPDQISAGGSA [r2_153_TrROS] | 0.561 ± 0.11 kcal/mol | 0.74 ± 0.018 kcal/mol | 0.199 ± 0.071 kcal/mol |
| SAGGSAGGSAMTVPLDTLTPERLRELLAENPERVVLKSADSVLVLSRDPATGRLTVTSHELRSAGGSAGGSA [r18_75_JUSTAS] | 1.22 ± 0.022 kcal/mol | 1.35 ± 0.014 kcal/mol | 0.951 ± 0.011 kcal/mol |
| SGSMTIKLTPDSPVEDVVKFIAENPNVNVTLLMPPEMSEELREKFEKALKEANVPKSQKVTFEVVPPGEESA [r9_670_JUSTAS] | 3.55 ± 0.15 kcal/mol | 3.87 ± 0.099 kcal/mol | 2.6 ± 0.14 kcal/mol |
| SAGGSAGGSAGGKVIVKEITINEDGTVTIKGEIFDENGELIAEAEFKFRLGDGGPIEFESAGGSAGGSAGGS [r10_484_TrMRF] | 2.3 ± 0.16 kcal/mol | 2.462 ± 0.021 kcal/mol | 2.18 ± 0.18 kcal/mol |
| SAGGSAMRIKDVNPDNGYFRIEPPDNGKPIYELNVEAMKKAQENGDIPPWVRELLNHEPGYRIEPVSAGGSA [r15_359_TrROS] | -0.327 ± 0.15 kcal/mol | -0.291 ± 0.21 kcal/mol | -0.979 ± 0.49 kcal/mol |
| SAGGSAGGSAGLKPGDEVLVISIEVETEIKLEEKDGKLTLETETKVKITITRVKLPEGAESAGGSAGGSAGG [r17_186_TrROS_Hall] | 3.82 ± 0.25 kcal/mol | 3.01 ± 0.21 kcal/mol | 3.79 ± 0.22 kcal/mol |
| SAGGSAGGSKIKIIVPKEKEEEAERLAKELKEKGEIPEVEIEVVESEEEAKELEEKADLVIVVSAGGSAGGS [r12_679_TrROS_Hall] | 0.805 ± 0.31 kcal/mol | 1.11 ± 0.19 kcal/mol | -0.562 ± 0.43 kcal/mol |
| SAGGSAGGSAGGKKTVKIEIEMPVEELLKKLKFPEGITSVRIIERDENGYLRIEIEVKLSAGGSAGGSAGGS [r10_352_TrROS_Hall] | 1.31 ± 0.23 kcal/mol | 1.32 ± 0.078 kcal/mol | 1.55 ± 0.05 kcal/mol |
| SAGSMTLESEDPSSGLRVTVTVEREPFLLPDGTRVLRRTVTTTVTTPDGEVLESEDVEVVAVLPPDAPLSAG [r5_871_JUSTAS] | 2.46 ± 0.077 kcal/mol | 2.43 ± 0.04 kcal/mol | 2.4 ± 0.085 kcal/mol |
| SMKSKISEIKSVEKKGNKVVVKVKIKAPKGKAYFIDSNGNIIKEVNLGKEVELEITFDSNNESFKVIVTDSA [r9_917_TrMRF] | 1.84 ± 0.099 kcal/mol | 1.99 ± 0.032 kcal/mol | 1.34 ± 0.065 kcal/mol |
| SAGMGPNEVKPIEIEFEVYETGEGEPYLVGKAIAKLYVDPVEGTVRLEIKDPEKPEPFITFEFPVEEISAGG [r19_413_TrMRF] | 1.94 ± 0.065 kcal/mol | 2.22 ± 0.037 kcal/mol | 1.38 ± 0.039 kcal/mol |
| SMFKNVKSVHIYQDPIKGNNLIIVAETEEGTVELELPEDKAIEFLNTLKEKGFDIKVTHVEYLPVSPEYGSA [r9_607_TrMRF] | 2.36 ± 0.081 kcal/mol | 2.453 ± 0.011 kcal/mol | 2.19 ± 0.064 kcal/mol |
| SAGGASVDRELTDPVTGDKIEVTITRLPDGSWLIEVTVTDAEGKTTKYPKTFPPGSYTPEDTIDFTKDSAGG [r13_959_JUSTAS] | 2.1 ± 0.16 kcal/mol | 2.14 ± 0.12 kcal/mol | 1.92 ± 0.2 kcal/mol |
| SAGGSAGGSAKPKVKIKIEVTVNEDGTVTVRAEIEVNGKKYTIEVKIKIKAPKPEKVKLFKKSAGGSAGGSA [r18_507_TrROS_Hall] | 0.497 ± 0.48 kcal/mol | -0.2 ± 0.84 kcal/mol | 0.919 ± 0.066 kcal/mol |
| SAGGMPGIRPVLRIRARVRFRGPEREEEIEIELHPEALEAGLTAEELARLRAEELGYEVEIEEIEIESAGGS [r16_554_TrMRF] | 1.84 ± 0.1 kcal/mol | 2.01 ± 0.068 kcal/mol | 1.26 ± 0.097 kcal/mol |

| Sequence | folding stability dG unfold [1] | folding stability dG unfold [2] | folding stability dG unfold [3] |
| --- | --- | --- | --- |
| SLKPGEPRTVEMTMIIPITPDEIAKLFGLDIPPGTYIMVEMRMRVPPNADIEMDPDIHLYDPDDNKWFPISA [r9_349_TrROS] | 2.86 ± 0.22 kcal/mol | 3.29 ± 0.086 kcal/mol | 2.18 ± 0.089 kcal/mol |
| SPKEPQKVRIRIRNPENGKPIWEFDIWFPPDGGVKVKIEHPNEKHEYPMPADEALDFLENHPFKIEEIEVSA [r9_470_TrROS] | 0.567 ± 0.33 kcal/mol | 0.301 ± 0.2 kcal/mol | 0.739 ± 0.18 kcal/mol |
| SAGMKIEPTKDYVLITVNGPEKALETIKKLKELIPNPEILDIKPHPHPNGENPWTIIIPTKNIPPEVLFSAG [r5_857_TrMRF] | 0.68 ± 0.15 kcal/mol | 0.519 ± 0.14 kcal/mol | 0.655 ± 0.042 kcal/mol |
| SAGGSAGGSELPIKEITVTSYDPKTGKYTVTITQGEGPTYTTTATSPEEVKKRYPDVKVTTSGSAGGSAGGS [r12_403_JUSTAS] | 0.718 ± 0.056 kcal/mol | 0.786 ± 0.035 kcal/mol | 0.434 ± 0.053 kcal/mol |
| SAGMTLTIEVLIKVETPEEARKAAEELARRLAEEGYTVTVEVVKVEEVTLPDGSKYYRVTVKVTVEPAPSAG [r5_158_TrROS_Hall] | 5.78 ± 0.31 kcal/mol | 5.62 ± 0.15 kcal/mol | 5.08 ± 0.38 kcal/mol |
| SAGGSANTTYIELPTNGMSDEEVKELAEELAKKLGVKLEIKPLPGEGYWVVTFTLPDSTSTIVIPGSAGGSA [r15_168_JUSTAS] | 2.41 ± 0.11 kcal/mol | 2.37 ± 0.038 kcal/mol | 2.55 ± 0.11 kcal/mol |
| SAGGSAGGSASKNGKELEIKIKVDIYPFPGWGIVRVDYEIEYPDGKEQKFDLWIPVPPGDASAGGSAGGSAG [r3_330_TrROS] | 1.66 ± 0.17 kcal/mol | 1.64 ± 0.088 kcal/mol | 1.65 ± 0.11 kcal/mol |
| SAGGRIEIDPNSMQIKIYDAEDGEKVEIPINMPPGQIKEIELDPDGKISIRMPMWGQTQELPADDIKSAGGS [r16_410_TrROS] | 0.793 ± 0.16 kcal/mol | 1.22 ± 0.023 kcal/mol | -0.206 ± 0.061 kcal/mol |
| SAGGSAGGSAGGFIARIEYPDGNTRTINPGMSLDELRNLPPDQIRRVEVEPVPPVPDDEKSAGGSAGGSAGG [r7_190_TrROS] | 0.499 ± 0.079 kcal/mol | 0.723 ± 0.023 kcal/mol | -0.225 ± 0.12 kcal/mol |
| SAFKIDPNGHIRIMISQDDLKQMSIEEINNLVKELAKAFPPPMKVEIHIMPPPPKPKPPPKRDDDGKPKSAG [r14_312_TrROS] | 1.1 ± 0.18 kcal/mol | 0.66 ± 0.13 kcal/mol | 1.54 ± 0.053 kcal/mol |
| SAGGSAGGAPPDARVTIEVELKNPDGTPISEEEVIEKLKPLGLEPVEIDVDPETGKVTITVRVLSAGGSAGG [r6_774_JUSTAS] | 1.41 ± 0.083 kcal/mol | 1.04 ± 0.092 kcal/mol | 1.69 ± 0.053 kcal/mol |
| SAGGSAGGMKELAEKLGWEYEEKEEKLPSGKKILIATFTSPDGSKVIITFDPSTNKIISEEVFESAGGSAGG [r6_982_JUSTAS] | 4.03 ± 0.25 kcal/mol | 3.71 ± 0.23 kcal/mol | 4.28 ± 0.4 kcal/mol |
| SNIRIEVDPPNGVIRVTYTFPGDSLSDIKDEIVEYIQKLGFPIEVDIDKIEPMNNYWRVTAYIKIPPGAISA [r9_347_TrROS] | 4.18 ± 0.086 kcal/mol | 4.56 ± 0.056 kcal/mol | 3.21 ± 0.095 kcal/mol |
| SAGGSAGGSAGKKKKKKPKKVKSVKIKITIKNKNGEKKEITVTFNKDGKLTLEEIKKLLKSAGGSAGGSAGG [r11_759_TrROS_Hall] | 2.28 ± 0.21 kcal/mol | 2.51 ± 0.12 kcal/mol | 2.22 ± 0.056 kcal/mol |
| SAGGSAGGSAKKITIYLPNAEVVEVEYDEETDVITIRVKNEDGSEYEFRFYPDGSVEIRPVSAGGSAGGSAG [r3_348_TrROS_Hall] | 3.4 ± 0.14 kcal/mol | 3.65 ± 0.15 kcal/mol | 2.95 ± 0.16 kcal/mol |
| SPLTLTFENPENGIRVELVFDPETPEVHAKVYAPNGELLSEETFEVEEKKITLRFNLEGKEFELEIELDESA [r9_385_TrMRF] | 4.16 ± 0.11 kcal/mol | 4.25 ± 0.082 kcal/mol | 3.86 ± 0.12 kcal/mol |
| SPIYVFIEKTNNKRTIMIQNPENGWWVEIKFNGGEITFPIDSVEDFLDELKDLGWPIEITKIRPLPPGQLSA [r9_1102_TrROS] | 3.16 ± 0.16 kcal/mol | 3.32 ± 0.12 kcal/mol | 2.79 ± 0.17 kcal/mol |
| SEAEAVTFPVPNPEDGELVADLAVARNPETGEWTVRLEHEDGKTVEVTFPEDEELPVDGLPPGLRATFTGSA [r9_1150_TrMRF] | -0.401 ± 0.13 kcal/mol | -0.916 ± 0.7 kcal/mol | -0.195 ± 0.12 kcal/mol |
| SAGGSMSPEEKARKLAEELRKKLPPGAKVRIKVEVDGKTYEIEIEPGEEIEFPPGEKVKIVEIEVESAGGSA [r2_391_TrROS_Hall] | 2.98 ± 0.3 kcal/mol | 2.82 ± 0.2 kcal/mol | 3.12 ± 0.16 kcal/mol |
| SAGGSAGGSMKIKPGQVVKIKVEKDGKIYEFEAKIDPKTGKLVEIKSAEELKGLKIKEIEIVPSAGGSAGGS [r12_6_TrROS_Hall] | 1.99 ± 0.062 kcal/mol | 2.274 ± 0.016 kcal/mol | 1.14 ± 0.027 kcal/mol |
| SSVEIKLYYDPVTNKYYVEITITAPPGDPAAVEARAAAVREEVKEALKAKGLVPDEIKVTVNVVSPAVPGSA [r9_117_JUSTAS] | 4.37 ± 0.21 kcal/mol | 4.27 ± 0.21 kcal/mol | 4.09 ± 0.15 kcal/mol |
